In patent US20260241035A1, “FUNCTIONAL NUCLEIC ACID MOLECULE AND METHOD” (THE UNIVERSITY COURT OF THE UNIVERSITY OF EDINBURGH, priority 2022, published 2026):

Key:
Assay type in all cases: cell-based, human
GSC7 cells [1] = experiment: AAV2 transduction: mCherry (flow cytometry) and HSV-TKv5 (western blot) expression in GSC7; conditions: AAV2 HSV-TK-v5-P2A-mCherry cassette
Procedure: (§1) For flow cytometry, cells were detached, pelleted and resuspended in an appropriate volume of flow cytometry buffer (1% BSA in PBS, v/v). Cells were stained with Draq7 (Abcam, ab109202, f.c. 0.1 μM) as a live/dead stain and analysed using the BD LSRFortessa cell analyser (4 lasers, BD Bioscience). Analysis of flow cytometry data was carried out in the FlowJo Analysis software (FlowJo, version 10.6.2).
(§2) Cells were scraped in PBS and spun down at […] twice to remove all liquid. Cell pellets were resuspended in 70 μl of RIPA buffer (50 mM Tris-HCl pH 8.0, 150 mM NaCl, 1% NP-40, 0.5% deoxycholate, 0.1% SDS and protease inhibitor (Complete, Roche, 11697498001) and incubated for 5 min on ice. Lysates were centrifuged at 13000 rpm for 10 min at 4° C. (centrifuge 5415D, Eppendorf). And the supernatant was collected in a new tube. Protein extracts were quantified using the Pierce BCA Protein Assay Kit (Thermo Scientific, Cat: 23225) according to the manufacturer's instructions.
(§3) HEK293 cells are seeded the day before the transfection into a 6 well plates so that on the day of transfection confluence would be at 60-70%. Before HEK293 cells are transfected with PEI a media change is carried out as this media will be conditioned with virus over the for two days. […] Cells are analysed on the microscope or flow cytometry. […]

huFb170 fibroblasts = experiment: AAV2 transduction: mCherry and HSV-TKv5 expression in huFb170; conditions: AAV2 HSV-TK-v5-P2A-mCherry cassette
Procedure: as §1, §2, §3

GSC7 cells [2] = experiment: Flow cytometry of mNGreen reporter in GSC7
Procedure: Cells were seeded at the required density. The following day the transfection was carried out. […] Following this step, the Plus reagent/Optimem premix was added to all DNA samples followed by the Lipofectamine LTX/Optimem premix. The transfection mix was incubated for 5 min at room temperature and then carefully dropped on the cells. Generally, no media change was carried out. Cells were analysed two days following transfection.
For flow cytometry, cells were detached, pelleted and resuspended in an appropriate volume of flow cytometry buffer (1% BSA in PBS, v/v). Cells were stained with Draq7 (Abcam, ab109202, f.c. 0.1 μM) as a live/dead stain and analysed using the BD LSRFortessa cell analyser (4 lasers, BD Bioscience).

[3] = test system: patient-derived glioblastoma cell lines (GSC7, E17, E21, E28, E31, E34); experiment: SSE-7 activity (% mCherry) across patient-derived glioblastoma cell lines
Source text: FIG. 7: Activity of SSE-7 in a range of GSCs. (A) Schematic of the expression cassette. (B) Experimental outline, (C) Results of % mCherry expression for individual cells across the various cell lines tested. GSC7 was the positive control cell line tested (from which the fragments were initially screened). E17, E28 (previously termed G328), E21, E31, E34 refers to the five additional patient-derived glioblastoma cell lines.
The experiment described in Example 8 was repeated in five patient-derived glioblastoma cell lines (E17, E21, E28, E31, E34).

[4] = test system: GSC patient lines E31 and E55; experiment: Lentivirus SSE-7-mCherry reporter, flow cytometry in GSC patient lines
Source text: FIG. 14: Exemplary SSE-7 also has good activity when deployed with lentivirus. Flow cytometry quantitation of levels of mCherry reporter in GSCs transduced with lentivirus harbouring SSE-7-mCherry reporters.

B1: SSE-7: synthetic super-enhancer ID4310_ID4428_ID0785_ID3836, SEQ ID NO: 70 (nucleic acid)
DNA: TTGTCCTGCCTTTGAGAACACTGGAAGGGCACTGAAGGCTGACCAGCATGCACCTCACCCCACCTCCTCTCTGTCTCATCCTCAGCCATCTAAGCGGGAGACTCATCAGGCTTAAATTCTCATTCTTATCCAAGATTCTTCTGCTTCAAATGAGTCTAAATGGAGATCCTCCCATAAAGGGAGTTCTGTTTGGGCTTCCCTTGGAAGTCCATTGAAAGCGTTTCACATTTCAATGCTTCTTTACATTCTCCTCTAGAATGAATCTGGAAGGGCCATTTCATTCCAGCCCTATCAGATTTACTACTTCCTCCTGTAAGAATGAACTGGGCCCAGCTGGGCATTTGCATCAAAGTGCCTCACCAGAGTTCCCAGCTGCTCTGGCAGAGTGCCCAGGCTTGCCCCAGAGCCCAAACAGAATGCTCTTTGAGATGCCTCTGGTTTTCATACCCTTCCAGGGGAGCAGTTTCCTGGCTGTGTCGTCAGATACTGTGGTTTACGCTGTTCCGGAGTCTGGAGGTCTGTGTGCCTTTGATCTCTTTCCCAACTAATTTGCACAGCTGCTGTGGAGGCCCTCATGAATGACCTCTTTCTTTCCTTTCT
- mCherry and HSV-TKv5 expression (GSC7 cells [1]): driving both mCherry and HSV-TKv5 expression
- mCherry and HSV-TKv5 expression (huFb170 fibroblasts): not in fibroblasts
- expression level compared with positive control CMV, flow cytometry (GSC7 cells [2]): higher than CMV
- fluorescence intensity compared with CMV (GSC7 cells [2]): higher intensity than CMV
- expression ([3]; E21, E31 and E34): lower frequency of expression
- expression ([3]; GSC7, E17 and E28): highly expressed and comparable to full-length CMV
- activity across cell lines ([3]; all lines tested): active in all cell lines
- mCherry reporter expression [4]: High levels of expression
